Results from article PMC7401805, “Tissue specific requirement of Drosophila Rcd4 for centriole duplication and ciliogenesis” (The Journal of Cell Biology, 2020).

T1: MBP-tagged Ana3-C1 fragment (amino acids 1195-1977) (Drosophila melanogaster, UniProt A1Z8X3 1195-1977)
T1 construct: Vector pKM596; also called MBP::Ana3 C1; Ana3-C terminal 1; source: E. coli Rosetta BL21(DE3), purified; not shown: MBP, N-terminal, kept
T1 sequence (looked up): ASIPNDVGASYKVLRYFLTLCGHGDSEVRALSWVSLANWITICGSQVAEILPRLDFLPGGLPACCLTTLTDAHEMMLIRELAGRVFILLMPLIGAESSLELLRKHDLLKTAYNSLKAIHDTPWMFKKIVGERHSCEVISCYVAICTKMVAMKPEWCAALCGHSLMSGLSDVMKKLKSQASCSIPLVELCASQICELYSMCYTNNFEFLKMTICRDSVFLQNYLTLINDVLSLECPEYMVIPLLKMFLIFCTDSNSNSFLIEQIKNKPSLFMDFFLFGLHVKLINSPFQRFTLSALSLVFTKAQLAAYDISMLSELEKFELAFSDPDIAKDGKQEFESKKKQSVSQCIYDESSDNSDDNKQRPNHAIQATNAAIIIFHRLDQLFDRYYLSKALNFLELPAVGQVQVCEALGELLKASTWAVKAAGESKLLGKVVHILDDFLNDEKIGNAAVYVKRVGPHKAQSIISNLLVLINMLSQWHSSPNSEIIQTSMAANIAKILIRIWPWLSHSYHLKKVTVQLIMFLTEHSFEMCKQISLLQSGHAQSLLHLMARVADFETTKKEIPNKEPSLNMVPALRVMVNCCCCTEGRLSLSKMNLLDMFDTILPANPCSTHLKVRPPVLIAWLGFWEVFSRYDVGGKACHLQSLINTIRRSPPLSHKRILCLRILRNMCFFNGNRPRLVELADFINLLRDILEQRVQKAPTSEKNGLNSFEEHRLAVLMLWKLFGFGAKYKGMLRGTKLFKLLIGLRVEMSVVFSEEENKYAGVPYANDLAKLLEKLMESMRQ


Tests used:
[1] = target: T1, MBP-tagged Ana3-C1 fragment (amino …); experiment: pull-down; GST-Rcd4 held on glutathione-sepharose 4B beads, MBP-tagged Ana3 fragment added, 1 h at 4°C; 20 mM Tris pH 7.5, 200 mM NaCl, 1 mM DTT, 10% glycerol; SDS-PAGE (Coomassie) and anti-MBP Western blot; settings: both partners purified
[2] = target: T2, GST-tagged full-length Ana3 (Drosophila melanogaster, UniProt A1Z8X3 1-1977); experiment: pull-down; full-length GST-Ana3 purified from S. cerevisiae incubated with MBP-Rcd4 purified from E. coli; GST::Ana3 purified, SDS-PAGE (Coomassie) and Western blot for MBP::Rcd4; settings: both partners purified
T2 construct: Ana3, Drosophila melanogaster; also called GST::Ana3; GST-Ana3; source: S. cerevisiae (plasmid pMG1): coexpressed with 6xHis-Rcd4, in crude extract; also expressed alone and purified on glutathione beads

binding result [1]	binding result [2]	Binder
binds		GST-tagged Rcd4 (natural protein, Drosophila melanogaster, UniProt Q9VLM6 1-199, looked up, Rcd4, Drosophila melanogaster; 199 amino acid protein; also called GST::Rcd4; GST-Rcd4; source: E. coli Rosetta BL21(DE3), purified on glutathione-sepharose 4B beads; not shown: GST, N-terminal, kept) MPHKRRNRVHANQRNFTARRVSVAKLSSAPPNVLVESCNGSHADNSSPDSPKAKEGAMTNGKNPEIKLAVPKCNTTVRKQNEAHIISNIKLDMNLNKDSNFIAPQITKKMNFAPNRVVFGVLVPLNVNDSVLVPHNRKPDALKHTSKESESCKAISEPQLADYAEKVDPMIMAVKEPVLHLDWEPGPFDFFGAYRRTYN
	binds	MBP-tagged Rcd4 (natural protein, Drosophila melanogaster, UniProt Q9VLM6 1-199, looked up, Rcd4, Drosophila melanogaster; 199 amino acid protein; also called MBP::Rcd4; MBP-Rcd4; source: E. coli Rosetta BL21(DE3), purified; not shown: MBP, N-terminal, kept) MPHKRRNRVHANQRNFTARRVSVAKLSSAPPNVLVESCNGSHADNSSPDSPKAKEGAMTNGKNPEIKLAVPKCNTTVRKQNEAHIISNIKLDMNLNKDSNFIAPQITKKMNFAPNRVVFGVLVPLNVNDSVLVPHNRKPDALKHTSKESESCKAISEPQLADYAEKVDPMIMAVKEPVLHLDWEPGPFDFFGAYRRTYN
